Experiment [1] deals with T1, Thermus thermophilus SlyD-IGF-1(74-90) fusion polypeptide.
T1 construct: also called Thermo Thermophilus SlyD-IGF-1 fusion polypeptide; Thermus thermophilus-IGF-1 fusion polypeptide
T1 chain: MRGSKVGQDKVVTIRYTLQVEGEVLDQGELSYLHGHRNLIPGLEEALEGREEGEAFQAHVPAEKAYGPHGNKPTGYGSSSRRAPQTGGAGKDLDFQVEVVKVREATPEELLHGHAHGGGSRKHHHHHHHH
Put plainly: ELISA, clone culture supernatant. (An ELISA detects its analyte on a solid surface through an enzyme-linked reagent.)

The target in experiment [2] is T2, native recombinant human IGF-1 (human, UniProt P05019 49-118).
T2 construct: In the ELISAs it was biotinylated and held on streptavidin plates; also called native IGF-1; native human IGF-1 (Peprotech)
Put plainly: SPR kinetics at 37 °C, clone culture supernatant, IGF-1 as analyte. In general terms: SPR reads the build-up and loss of mass on a sensor chip optically.

Experiment [3] concerns the target T2, native recombinant human IGF-1. In words: SPR at 37 °C, clone culture supernatant antibody captured.
Experiment [4] addresses T1, Thermus thermophilus SlyD-IGF-1(74-90) …. Described as above.
Experiment [5] has the same target. In words: SPR at 25 °C, mAb captured, antigen as analyte.

B1: <IGF-1>M-11.11.17 (antibody, V domains shown)
VH: QVQLQQSGAELVRPGSSVKISCKASGYAFSNLWMNWVKQRPGQGLEWIGQIYPGDGDTNYYGDFKGKATLTADSSSSTAYMQLSRLTSEDSAVYFCARIGYYGMDYWGQGTSVTVSS
VL: DVVLTQTPLSLPVNIGDEASISCKSTKSLLSSDGLTYLDWYLQKPGQSPQVLIYLVSNRFSGVPDRFSGSGSGTDFTLKISRVEAEDLGVYYCFQSNYLPTFGAGTKLELK
Consider B1, for which the reactivity in experiment [1] was 2150 mE. In experiment [2], the Ka amounted to 2.2e+10 M⁻¹. Besides, the Kd amounted to 0.046 nM in experiment [2] and 0.01 nM in experiment [5]. Moreover, the koff in experiment [2] came out at 0.00014 s⁻¹; in experiment [3], 1e-05 s⁻¹; in experiment [4], 1e-05 s⁻¹; in experiment [5], 1e-05 s⁻¹. Also, the on-rate constant (kon) in experiment [2] worked out at 3.1e+06 M⁻¹ s⁻¹; in experiment [5], 710000 M⁻¹ s⁻¹.

By Kd is commonly meant the concentration at which binding is half-saturated. The term koff denotes the first-order rate constant of dissociation. As a reminder, the kon is a measure of how fast the partners come together.
